Measured values reported in patent US12338277.

Target: SHIVAD8EO envelope on pseudotyped virus (SHIV (HIV-1 AD8-derived env))
Assay: cell-based or functional assay

Substance: 3BNC117 (antibody)
- IC50, TZM-bl neutralization of SHIVAD8EO: 0.14 µg/mL
